Patent publication US20240158515A1 (Regeneron, published 2024)

Experiments:
[1] = target: T1, human FGFR3c expressed with a C-terminal myc-myc-hexahistidine tag (hFGFR3c.mmH) (human, UniProt P22607 23-375); assay: SPR Biacore, mAb captured on anti-hFc, 25C; row marked NB
T1 construct: also called REGN3155; monomeric human FGFR3c

[2] = target: full length human FGFR3b on BaF3 cells (BAF3/FGFR3b, ACL11991) (human, UniProt P22607 23-808); assay: cell-based or functional assay
[3] = target: full length human FGFR3b S249C on BaF3 cells (BAF3/FGFR3b_S249C, ACL11986) (human, UniProt P22607 23-808); assay: cell-based or functional assay
[4] = target: T2, human FGFR3b expressed with a C-terminal myc-myc-hexahistidine tag (hFGFR3b.mmH) (human); assay: SPR Biacore, mAb captured on anti-hFc, 25C
T2 construct: also called REGN3152; monomeric human FGFR3b
T2 chain: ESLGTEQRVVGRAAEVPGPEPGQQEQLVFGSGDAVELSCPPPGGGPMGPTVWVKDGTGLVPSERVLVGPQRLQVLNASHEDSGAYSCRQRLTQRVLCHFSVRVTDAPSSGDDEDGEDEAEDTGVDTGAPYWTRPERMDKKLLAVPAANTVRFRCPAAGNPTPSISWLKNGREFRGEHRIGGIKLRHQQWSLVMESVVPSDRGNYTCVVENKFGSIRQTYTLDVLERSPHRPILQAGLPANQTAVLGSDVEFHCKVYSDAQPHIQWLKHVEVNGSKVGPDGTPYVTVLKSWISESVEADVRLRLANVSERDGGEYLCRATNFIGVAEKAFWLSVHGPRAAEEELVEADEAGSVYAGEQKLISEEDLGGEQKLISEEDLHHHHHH

B1: H4H30063P (antibody, human IgG4 S228P, kappa, V domains shown)
VH: QVQLQESGPGLVKPSETLSLTCTVSGDSINSYFWSWIRQLPGKELEWIGHIYSSGSTRYNPSLQSRVTISIDTSKNQFSLKLSSVTAADTAVYYCARGASAVDYWGQGTLVTVSS
VL: EIVLTQSPGTLSLSPGERATLSCRTSQSISSGYLAWYQQKPGQAPRLLIYGASRRATGIPDRFSGSGSGTDFTLTISRLEPEDFVVYYCQQYGSSPYTFGQGTKLEIKR
notes: HCVR 2, LCVR 10; also called REGN15684
In the case of B1, the “90 nM hFGFR3c.mmH Bind (RU)” value [1] is reported as -19.6 RU, the “IC50 [M], BaF3 proliferation (CellTiter-Glo) with 1 nM FGF1 + 5 ug/ml heparin” value [2] is reported as 6.06e-10 M and the “Max Blocking (%), BaF3 proliferation (CellTiter-Glo) with 1 nM FGF1 + 5 ug/ml heparin” value [2] is reported as 98%. For the same binder, the “IC50 [M], BaF3 proliferation (CellTiter-Glo) with 1 nM FGF1 + 5 ug/ml heparin” value [3] was 5.08e-10 M, the “Max Blocking (%), BaF3 proliferation (CellTiter-Glo) with 1 nM FGF1 + 5 ug/ml heparin” value [3] was 93.4% and the “90 nM hFGFR3b.mmH Bind (RU)” value [4] was 240 RU. The Kd [4] was 0.222 nM, the koff [4] was 3.83e-05 s⁻¹ and the kon [4] was 172000 M⁻¹ s⁻¹. The “t½” value [4] was 5.03 h.
